Experimental findings from paper PMC2778690 are described below.

Test [1] has as its target Human Bax alpha (human) (UniProt Q07812). The test can be described thus: cross-linking.
For test [2] the target is unchanged. Description: cross-linking. This is another data set of the same source.

Read-outs that look alike come from different tables or passages of the source. Bounds are passed on as bounds.

By stoichiometry N is commonly meant a count of units in the complex or per binding partner.

Take “Human Bax alpha (from UniProt Q07812 1-192) (natural protein)”: the stoichiometry N in test [1] is 2; in test [2], under 8.
